Substrate in the series: C[C@H](NC(=O)CCC(=O)O)C(=O)N[C@@H](C)C(=O)N1CCC[C@H]1C(=O)N[C@@H](Cc1ccccc1)C(=O)Nc1ccc([N+](=O)[O-])cc1
The series can be described thus: AAPF-pNA assay, kinetic parameters. The series is classed as biochemical, Bacillus lentus DSM 5483. The following applies: 100 mM Tris pH 8.6, 25°C. Here is the method:
Two different protease assays were used. With the HPE method protease activity was established at a single concentration of casein as substrate. In the AAPF-pNA assay initial rates of succinyl-L-alanyl-L-alanyl-L-prolyi-L-phenylalanyl-p-nitroanilide (AAPF-pNA; Bachem Bioscience, Philadelphia, PA) supported catalysis were used to determine the kinetic parameters Km, kcat, and kcat/Km.
Protease samples were diluted with 50% (v/v) 1,2-propanediol in 100 mM Tris, adjusted with 2 N HCl to pH 8.6 at 25°C ('Tris-propanediol buffer'), in which they were stable for at least 6 h at room temperature. A stock solution of 160 mM AAPF-pNA was prepared in dimethylsulfoxide dried over molecular sieve beads (Aldrich; 4 A, 4-8 mesh) for at least 24 h prior to use. Fixed point assays were performed at 25°C with 1.6 mM AAPF-pNA in 100 mM Tris, adjusted with 2 N HCl to pH 8.6 at 25°C, in a total volume of 1.020 ml. The substrate was added to the assay buffer 1 minute prior to the assay initiation and the reaction was started by addition of enzyme at a final concentration of 20 ng to 1.3 µg of protein per ml (0.75 to 48.5 nM enzyme) depending on specific activity. Release of p-nitroanilide was monitored at 410 nm, and a molar extinction coefficient of 8,480 M^-1cm^-1 was used to calculate amount and concentration of product formed (DelMar, E.G., Largman, C., Brodrick, J.W., and Geokas, M.C. (1979) Anal Biochem. 99, 316-320).
Kinetic parameters were calculated from a velocity vs. substrate concentration plot constructed from initial rates measured once each at 12 different AAPF-pNA concentrations ranging from 0.16 to 3.2 mM. Data were fitted to a hyperbolic curve and proportionally weighted using the program ENZFITTER (Leatherbarrow, R.J. (1987) ENZFITTER. Biosoft, Cambridge, UK). A nominal molecular weight of 26.8 kDa was used in all calculations that required the interconversion of protein concentration and molarity of protease enzyme (Table 4).

[1] abbreviates: other: F54, AAPF-pNA 0.16 to 3.2 mM.
Setting [2] is: other: F44, AAPF-pNA 0.16 to 3.2 mM.
Where [3] appears, read: other: F47, AAPF-pNA 0.16 to 3.2 mM.
[4] abbreviates: other: F55, AAPF-pNA 0.16 to 3.2 mM.
[5] abbreviates: other: F49, AAPF-pNA 0.16 to 3.2 mM.
Setting [6] is: other: F43, AAPF-pNA 0.16 to 3.2 mM.
[7] abbreviates: other: F45, AAPF-pNA 0.16 to 3.2 mM.
Setting [8] is: other: F11, AAPF-pNA 0.16 to 3.2 mM.
[9] abbreviates: other: F46, AAPF-pNA 0.16 to 3.2 mM.
Where [10] appears, read: other: M131, AAPF-pNA 0.16 to 3.2 mM.

10 proteins from patent publication EP0701605B2, “IMPROVED ENZYMES AND DETERGENTS CONTAINING THEM” (BASF SE, priority 1994, dated 1995) can be followed below.

B1: Bacillus lentus DSM 5483 alkaline protease (BLAP) variant F54, S3T + V41 + R99G + A188P + V193M + V199I + L211D, SEQ ID NO:17 (Lederbergia lenta; … (protein)
chain: AQTIPWGISRVQAPAAHNRGLTGSGVKVAVLDTGISTHPDLNIRGGASFVPGEPSTQDGNGHGTHVAGTIAALNNSIGVLGVAPSAELYAVKVLGADGGGAISSIAQGLEWAGNNGMHVANLSLGSPSPSATLEQAVNSATSRGVLVVAASGNSGASSISYPARYANAMAVGATDQNNNRASFSQYGPGLDIMAPGVNIQSTYPGSTYASDNGTSMATPHVAGAAALVKQKNPSWSNVQIRNHLKNTATSLGSTNLYGSGLVNAEAATR
notes: made in house; host or cells: Bacillus subtilis DB104
The Km is the concentration of substrate that gives half-maximal velocity. Usually kcat stands for the number of substrate molecules converted per active site and unit of time at saturation. The kcat/Km is the second-order rate constant that governs catalysis at low substrate concentration. Take B1: under setting [1], the Km was 5500 µM, the kcat turned out to be 7 s⁻¹ and the kcat/Km worked out at 1300 M⁻¹ s⁻¹.

B2: Bacillus lentus DSM 5483 alkaline protease (BLAP) variant F44, S3T + V41 + R99A + A188P + V193M + V1991, SEQ ID NO:12 (Lederbergia lenta; … (protein)
chain: AQTIPWGISRVQAPAAHNRGLTGSGVKVAVLDTGISTHPDLNIRGGASFVPGEPSTQDGNGHGTHVAGTIAALNNSIGVLGVAPSAELYAVKVLGADGAGAISSIAQGLEWAGNNGMHVANLSLGSPSPSATLEQAVNSATSRGVLVVAASGNSGASSISYPARYANAMAVGATDQNNNRASFSQYGPGLDIMAPGVNIQSTYPGSTYASLNGTSMATPHVAGAAALVKQKNPSWSNVQIRNHLKNTATSLGSTNLYGSGLVNAEAATR
notes: as for B1
B2: under setting [2], the Km amounted to 2490 µM, the kcat is 257 s⁻¹ and the kcat/Km is 103000 M⁻¹ s⁻¹.

B3: Bacillus lentus DSM 5483 alkaline protease (BLAP) variant F47, S3T + V41 + S154D + A188P + V193M + V1991, SEQ ID NO:15 (Lederbergia lenta; … (protein)
chain: AQTIPWGISRVQAPAAHNRGLTGSGVKVAVLDTGISTHPDLNIRGGASFVPGEPSTQDGNGHGTHVAGTIAALNNSIGVLGVAPSAELYAVKVLGADGRGAISSIAQGLEWAGNNGMHVANLSLGSPSPSATLEQAVNSATSRGVLVVAASGNDGASSISYPARYANAMAVGATDQNNNRASFSQYGPGLDIMAPGVNIQSTYPGSTYASLNGTSMATPHVAGAAALVKQKNPSWSNVQIRNHLKNTATSLGSTNLYGSGLVNAEAATR
notes: as for B1
Take B3: under setting [3], the Km amounted to 2000 µM, the kcat worked out at 249 s⁻¹ and the kcat/Km came to 124000 M⁻¹ s⁻¹.

B4: Bacillus lentus DSM 5483 alkaline protease (BLAP) variant F55, S3T + V41 + S154E + A188P + V193M + V1991 + L211D, SEQ ID NO:18 (Lederbergia lenta; … (protein)
chain: AQTIPWGISRVQAPAAHNRGLTGSGVKVAVLDTGISTHPDLNIRGGASFVPGEPSTQDGNGHGTHVAGTIAALNNSIGVLGVAPSAELYAVKVLGADGRGAISSIAQGLEWAGNNGMHVANLSLGSPSPSATLEQAVNSATSRGVLVVAASGNEGASSISYPARYANAMAVGATDQNNNRASFSQYGPGLDIMAPGVNIQSTYPGSTYASDNGTSMATPHVAGAAALVKQKNPSWSNVQIRNHLKNTATSLGSTNLYGSGLVNAEAATR
notes: as for B1
On to B4, for which, under setting [4], the Km amounted to 4300 µM, the kcat was 11 s⁻¹ and the kcat/Km was 2600 M⁻¹ s⁻¹.

B5: Bacillus lentus DSM 5483 alkaline protease (BLAP) variant F49, S3T + V4I + A188P + V193M + V1991 + L211D, SEQ ID NO:16 (Lederbergia lenta; … (protein)
chain: AQTIPWGISRVQAPAAHNRGLTGSGVKVAVLDTGISTHPDLNIRGGASFVPGEPSTQDGNGHGTHVAGTIAALNNSIGVLGVAPSAELYAVKVLGADGRGAISSIAQGLEWAGNNGMHVANLSLGSPSPSATLEQAVNSATSRGVLVVAASGNSGASSISYPARYANAMAVGATDQNNNRASFSQYGPGLDIMAPGVNIQSTYPGSTYASDNGTSMATPHVAGAAALVKQKNPSWSNVQIRNHLKNTATSLGSTNLYGSGLVNAEAATR
notes: as for B1
With B5, under setting [5], the Km was found to be 3500 µM, the kcat amounted to 38 s⁻¹ and the kcat/Km came out at 11000 M⁻¹ s⁻¹.

B6: Bacillus lentus DSM 5483 alkaline protease (BLAP) variant F43, S3T + V41 + R99G + A188P + V193M + V1991, SEQ ID NO:11 (Lederbergia lenta; … (protein)
chain: AQTIPWGISRVQAPAAHNRGLTGSGVKVAVLDTGISTHPDLNIRGGASFVPGEPSTQDGNGHGTHVAGTIAALNNSIGVLGVAPSAELYAVKVLGADGGGAISSIAQGLEWAGNNGMHVANLSLGSPSPSATLEQAVNSATSRGVLVVAASGNSGASSISYPARYANAMAVGATDQNNNRASFSQYGPGLDIMAPGVNIQSTYPGSTYASLNGTSMATPHVAGAAALVKQKNPSWSNVQIRNHLKNTATSLGSTNLYGSGLVNAEAATR
notes: as for B1
Take B6: under setting [6], the Km stood at 1730 µM, the kcat came out at 171 s⁻¹ and the kcat/Km stood at 99000 M⁻¹ s⁻¹.

B7: Bacillus lentus DSM 5483 alkaline protease (BLAP) variant F45, S3T + V41 + R99S + A188P + V193M + V1991, SEQ ID NO:13 (Lederbergia lenta; … (protein)
chain: AQTIPWGISRVQAPAAHNRGLTGSGVKVAVLDTGISTHPDLNIRGGASFVPGEPSTQDGNGHGTHVAGTIAALNNSIGVLGVAPSAELYAVKVLGADGSGAISSIAQGLEWAGNNGMHVANLSLGSPSPSATLEQAVNSATSRGVLVVAASGNSGASSISYPARYANAMAVGATDQNNNRASFSQYGPGLDIMAPGVNIQSTYPGSTYASLNGTSMATPHVAGAAALVKQKNPSWSNVQIRNHLKNTATSLGSTNLYGSGLVNAEAATR
notes: as for B1
For B7, under setting [7], the Km is 3050 µM, the kcat was 208 s⁻¹ and the kcat/Km came out at 68000 M⁻¹ s⁻¹.

B8: Bacillus lentus DSM 5483 alkaline protease (BLAP) variant F11, S3T + R99S + A188P + V193M + V1991, SEQ ID NO:10 (Lederbergia lenta; A188P/R99S/S3T/V193M/V199I) (protein)
chain: AQTVPWGISRVQAPAAHNRGLTGSGVKVAVLDTGISTHPDLNIRGGASFVPGEPSTQDGNGHGTHVAGTIAALNNSIGVLGVAPSAELYAVKVLGADGSGAISSIAQGLEWAGNNGMHVANLSLGSPSPSATLEQAVNSATSRGVLVVAASGNSGASSISYPARYANAMAVGATDQNNNRASFSQYGPGLDIMAPGVNIQSTYPGSTYASLNGTSMATPHVAGAAALVKQKNPSWSNVQIRNHLKNTATSLGSTNLYGSGLVNAEAATR
notes: as for B1
For the protein B8, under setting [8], the Km stood at 1880 µM, the kcat is 174 s⁻¹ and the kcat/Km is 92000 M⁻¹ s⁻¹.

B9: Bacillus lentus DSM 5483 alkaline protease (BLAP) variant F46, S3T + V41 + S154E + A188P + V193M + V1991, SEQ ID NO:14 (Lederbergia lenta; … (protein)
chain: AQTIPWGISRVQAPAAHNRGLTGSGVKVAVLDTGISTHPDLNIRGGASFVPGEPSTQDGNGHGTHVAGTIAALNNSIGVLGVAPSAELYAVKVLGADGRGAISSIAQGLEWAGNNGMHVANLSLGSPSPSATLEQAVNSATSRGVLVVAASGNEGASSISYPARYANAMAVGATDQNNNRASFSQYGPGLDIMAPGVNIQSTYPGSTYASLNGTSMATPHVAGAAALVKQKNPSWSNVQIRNHLKNTATSLGSTNLYGSGLVNAEAATR
notes: as for B1
On to B9, for which, under setting [9], the Km was found to be 2000 µM, the kcat amounted to 358 s⁻¹ and the kcat/Km came out at 179000 M⁻¹ s⁻¹.

B10: Bacillus lentus DSM 5483 alkaline protease (BLAP) variant M131, S3T + V41 + A188P + V193M + V1991, SEQ ID NO: 24 (Lederbergia lenta; A188P/S3T/V193M/V199I/V4I) (protein)
chain: AQTIPWGISRVQAPAAHNRGLTGSGVKVAVLDTGISTHPDLNIRGGASFVPGEPSTQDGNGHGTHVAGTIAALNNSIGVLGVAPSAELYAVKVLGADGRGAISSIAQGLEWAGNNGMHVANLSLGSPSPSATLEQAVNSATSRGVLVVAASGNSGASSISYPARYANAMAVGATDQNNNRASFSQYGPGLDIMAPGVNIQSTYPGSTYASLNGTSMATPHVAGAAALVKQKNPSWSNVQIRNHLKNTATSLGSTNLYGSGLVNAEAATR
notes: site-specific mutagenesis of DNA encoding the mature form of wild type BLAP; made in house; host or cells: Bacillus subtilis DB104
Take B10: under setting [10], the Km was found to be 980 µM, the kcat amounted to 153 s⁻¹ and the kcat/Km turned out to be 156000 M⁻¹ s⁻¹.
